Test [1] addresses actin filaments of D. melanogaster S2 cells (lamellipodial actin ring, patches, filopodia) (D. melanogaster). The test can be described thus: TIRF imaging of S2 cells before and after blue light.
Test [2] shares this target. The test can be described thus: TIRF imaging of a fixed S2 cell expressing mCherry-Lifeact stained with Alexa Fluor 488 phalloidin; panel a, lower cell.
Test [3] shares this target. The test is described as follows: TIRF imaging of a fixed S2 cell expressing mCherry-Lifeact stained with Alexa Fluor 488 phalloidin; panel a, upper cell.
The target of test [4] is F-actin (G-actin polymerized, filaments stabilized with phalloidin). The test is described as follows: cosedimentation with 0.5 µM phalloidin-stabilized F-actin, SDS-PAGE of the pellet, hyperbolic fit.
Test [5] addresses actin filaments of D. melanogaster S2 cells (lamellipodial actin ring, patches, filopodia) (D. melanogaster). The test is described as follows: cell-based or functional assay.
Test [6] shares this target. The test can be described thus: TIRF images of an S2 cell before and after blue-light excitation, printed in panel b.
The target is the same in test [7]. The test is described as follows: TIRF image of an S2 cell before blue-light excitation, panel a; outer and inner rings hand traced.
For test [8] the target is unchanged. The test is described as follows: TIRF image of the same S2 cell after blue-light excitation, panel b; outer and inner rings hand traced.
The target is the same in test [9]. The test can be described thus: TIRF imaging of a live S2 cell; actin labeling ratio over time, panel B, recovery after the 2nd blue-light excitation.
Test [10] shares this target. The test can be described thus: TIRF imaging of a live S2 cell; actin labeling ratio over time, panel B, recovery after the 3rd blue-light excitation.
Test [11] shares this target. The test is described as follows: TIRF imaging of a live S2 cell; actin labeling ratio over time, panel B, recovery after the 4th blue-light excitation.
Test [12] has the same target. The test can be described thus: TIRF imaging of a repeatedly excited S2 cell; actin labeling ratio over time, panel f, recovery after the 2nd excitation.
The target is the same in test [13]. The test can be described thus: TIRF imaging of a repeatedly excited S2 cell; actin labeling ratio over time, panel f, recovery after the 3rd excitation.
Test [14] has the same target. The test is described as follows: TIRF imaging of a repeatedly excited S2 cell; actin labeling ratio over time, panel f, recovery after the 4th excitation.
Test [15] shares this target. The test can be described thus: TIRF imaging of a repeatedly excited S2 cell; actin labeling ratio over time, panel f, recovery after the 1st excitation (black exponential fit).
Test [16] has the same target. The test can be described thus: TIRF imaging of a live S2 cell; actin labeling ratio over time, panel B, recovery after the 1st blue-light excitation (black exponential fit drawn on this one).
For test [17] the target is unchanged. The test is described as follows: TIRF imaging of an S2 cell expressing mCherry-LILAC, fixed under blue light and stained with Alexa Fluor 488 phalloidin; panel b, lower cell.
For test [18] the target is unchanged. The test can be described thus: TIRF imaging of an S2 cell expressing mCherry-LILAC, fixed under blue light and stained with Alexa Fluor 488 phalloidin; panel b, upper cell.

Experimental findings from patent publication US20240410901A1 are described below.

For the molecule “mCherry-Lifeact expressed in Drosophila S2 cells (pMT-mCherry-Lifeact vector) (from UniProt Q08641 1-17)”, the switching ratio (fold change of the actin labeling ratio, post/pre-excitation) in test [1] turned out to be 1. In addition, the r (Pearson's correlation coefficient with the phalloidin image) in [2] was determined as 0.89; in test [3], 0.83.
A word on the Kd: it is the equilibrium constant for the complex coming apart. Low values mean higher affinity, high ones lower affinity. “mCherry-Lifeact, expressed in E. coli and purified (6×His-mCherry-TEV-Lifeact from the pET21-mCherry-Lifeact vector) (from UniProt Q08641 1-17)”: in test [4], the Kd stood at 3.9 µM.

B1: mCherry-LILAC I539E, expressed in E. coli and purified (6×His-mCherry-TEV-LILAC with I539E, pET21) (designed binder, not shown: large carriers; small tags and cut ends)
chain: HHHHHHGEFLATTLERIEKNFVITDPRLPDNPIIFASDSFLQLTEYSREEILGRNCRFLQGPETDRATVRKIRDAIDNQTEVTVQLINYTKSGKKFWNLFHLQPMRDQKGDVQYFIGVQLDGTEHVRDAAEREAVMLAKKTAEEEDEAAMGVADLIKKFESISKEE
B1 returned a Kd in test [4] of 3.4 µM.

B2: mCherry-LILAC expressed in Drosophila S2 cells (pMT vector) (designed binder, not shown: large carriers)
chain: GGSGGSGGSGEFLATTLERIEKNFVITDPRLPDNPIIFASDSFLQLTEYSREEILGRNCRFLQGPETDRATVRKIRDAIDNQTEVTVQLINYTKSGKKFWNLFHLQPMRDQKGDVQYFIGVQLDGTEHVRDAAEREAVMLAKKTAEEIDEAAMGVADLIKKFESISKEE
On to B2, for which the dark state recovery time constant, from actin labeling ratio traces in test [5] was 63 s. Moreover, the switching ratio (fold change of the actin labeling ratio, post/pre-excitation) in test [1] is 1.6. In [6], the ASR (actin switching ratio, ALR post / ALR pre) was determined as 2.02. Besides, the ALR (actin labeling ratio, intensity outer / intensity inner) came to 0.39 in test [7] and 0.79 in test [8]. The τ (time constant of the decay of the actin labeling ratio after excitation) in test [9] amounted to 73 s; in test [10], 61 s; in test [11], 59 s; in test [12], 73 s; in [13], 61 s; in test [14] it was 59 s. In addition, the τ (time constant of the decay of the actin labeling ratio after excitation) in test [15] and in [16] was 71 s each time. For the same molecule, the r (Pearson's correlation coefficient with the phalloidin image) in test [17] worked out at 0.62; in test [18], 0.6.

B3: mCherry-LILAC T406A/T407A expressed in Drosophila S2 cells (pMT vector) (designed binder, not shown: large carriers)
chain: GGSGGSGGSGEFLAAALERIEKNFVITDPRLPDNPIIFASDSFLQLTEYSREEILGRNCRFLQGPETDRATVRKIRDAIDNQTEVTVQLINYTKSGKKFWNLFHLQPMRDQKGDVQYFIGVQLDGTEHVRDAAEREAVMLAKKTAEEIDEAAMGVADLIKKFESISKEE
Turning to B3, in test [5], the dark state recovery time constant, from actin labeling ratio traces was 50 s.

B4: mCherry-LILAC I539E expressed in Drosophila S2 cells (pMT vector) (designed binder, not shown: large carriers)
chain: GGSGGSGGSGEFLATTLERIEKNFVITDPRLPDNPIIFASDSFLQLTEYSREEILGRNCRFLQGPETDRATVRKIRDAIDNQTEVTVQLINYTKSGKKFWNLFHLQPMRDQKGDVQYFIGVQLDGTEHVRDAAEREAVMLAKKTAEEEDEAAMGVADLIKKFESISKEE
B4: the switching ratio (fold change of the actin labeling ratio, post/pre-excitation) in test [1] was 1.
